The record followed here is publication PMC7333480 (Journal of Molecular Cell Biology, 2019).

The target in this assay is His-ezrin WT (UniProt P15311 1-586). Briefly: pull-down.
Chain of His-ezrin WT (P15311 whole entry): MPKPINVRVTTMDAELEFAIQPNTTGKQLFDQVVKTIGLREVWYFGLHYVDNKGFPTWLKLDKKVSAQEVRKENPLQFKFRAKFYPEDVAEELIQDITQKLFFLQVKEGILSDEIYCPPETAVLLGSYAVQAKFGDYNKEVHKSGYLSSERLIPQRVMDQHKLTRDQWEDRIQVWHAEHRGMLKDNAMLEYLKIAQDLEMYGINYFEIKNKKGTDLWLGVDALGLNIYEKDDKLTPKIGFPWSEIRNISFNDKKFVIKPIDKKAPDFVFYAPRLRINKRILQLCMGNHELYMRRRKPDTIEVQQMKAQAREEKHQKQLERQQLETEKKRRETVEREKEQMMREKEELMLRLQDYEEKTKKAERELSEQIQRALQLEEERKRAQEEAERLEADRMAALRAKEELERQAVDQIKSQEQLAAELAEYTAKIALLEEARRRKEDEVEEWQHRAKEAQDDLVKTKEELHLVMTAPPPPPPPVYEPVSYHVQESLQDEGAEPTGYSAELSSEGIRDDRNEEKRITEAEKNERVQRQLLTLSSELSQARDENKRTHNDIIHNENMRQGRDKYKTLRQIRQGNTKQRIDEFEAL

B1: GST-EBP50-CT (domain or fragment)
chain: KENSREALAEAALESPRPALVRSASSDTSEELNSQDSPPKQDSTAPSSTSSSDPILDFNISLAMAKERAHQKRSSKRAPQMDWSKKNELFSNL
In the case of B1, the binding result is on record as “binds”.

Take FGQHLRQQRMGTYGVRAAWRRLPQAFRP (domain or fragment) [GST-ICAM2-CT]: the binding result is given as “binds”.
